For assay [1], the target named is Alexa-532-TNYL-RAW peptide. The assay can be described thus: fluorescence polarization, EphB4 titrated into 75 nM Alexa-532-TNYL-RAW. For orientation: Fluorescence polarisation rises when a labelled molecule tumbles more slowly, as on binding a larger partner.
For assay [2], the target named is T1, human EphB4 ephrin-binding domain, EphB4 (wt), EphB4 (17-196) (Homo sapiens, UniProt P54760).
T1 sequence (P54760 17-196): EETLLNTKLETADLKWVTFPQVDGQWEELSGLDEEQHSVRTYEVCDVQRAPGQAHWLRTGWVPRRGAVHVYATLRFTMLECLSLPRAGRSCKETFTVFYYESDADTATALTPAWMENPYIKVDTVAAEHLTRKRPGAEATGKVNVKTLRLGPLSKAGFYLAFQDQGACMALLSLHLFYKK
Description: Isothermal titration calorimetry (ITC), wild-type EphB4. Conditions: Table 5, receptor EphB4 (wt). In general terms: In ITC the heat of successive injections is recorded.
Description: All mutants and ligands were dialyzed into buffer containing 50 mM Tris-Cl (pH 7.8), 150 mM NaCl, and 1 mM CaCl2 prior to use in isothermal titration calorimetry (ITC) experiments. All experiments were performed with a Microcal MCS ITC at 25° C. […] Data for these titrations were fit assuming a stoichiometry of 1 and at least 60% saturation at the final peptide concentration as described (19,34).
Peptides were dissolved into the same buffer used for the dialysis of EphB4. […] ITC experiments were performed with a Microcal MCS ITC at 25° C. Following an initial injection of 2 μl, titrations were performed by making 20 13 μl injections of peptide into EphB4 in the sample cell to produce an approximate final 2:1 ratio of injectant to sample in the cell. […] Prior to loading the sample cell, EphB4 was centrifuged at 18,000 g for 5 min at 4° C. to remove aggregates and degassed for 5 minutes at room temperature. […] Dilution data were fit to a line and subtracted from the corresponding titration data.

Assay [3] deals with human EphB4 (17-196) K149Q mutant (human). The assay can be described thus: ITC in phosphate buffer.
Assay [4] deals with human EphB4 (17-196) ligand binding domain, wild type (human). Description: ITC, 25 °C.
Assay [5] has as its target human EphB4 (17-196) L95R mutant (human). The assay can be described thus: ITC, 25 °C.
Assay [6] concerns the target human EphB4 (17-196) K149Q mutant (human). The assay can be described thus: ITC, 25 °C.
The target in assay [7] is human EphB4 (17-196) ligand binding domain, wild type (human). The assay can be described thus: ITC, 25 °C, 50 mM Tris pH 7.8, 150 mM NaCl, 1 mM CaCl2.
Assay [8] deals with human EphB4 (17-196) L95R mutant (human). The description is as above.
In assay [9] the target is human EphB4 (17-196) K149Q mutant (human). The description is as above.
Assay [10] deals with human EphB4 (17-196) L95R mutant (human). The assay can be described thus: ITC, 25 °C, 2 mM TNYL-RAW in the syringe, 15 µM EphB4 (L95R) in the cell; fit assuming stoichiometry of 1.
The target in assay [11] is human EphB4 (17-196) ligand binding domain, wild type (human). Description: FP competition, unlabeled TNYL-RAW against Alexa-532-TNYL-RAW on wtEphB4 (FIG. 7).
Assay [12] concerns the target human EphB4 (17-196) K149Q mutant (human). The assay can be described thus: FP competition, unlabeled TNYL-RAW against Alexa-532-TNYL-RAW on EphB4 K149Q (FIG. 7).
Assay [13] concerns the target human EphB4 (17-196) L95R mutant (human). The assay can be described thus: ITC.
For assay [14], the target named is human EphB4 (17-196) K149Q mutant (human). The assay can be described thus: ITC.
For the next assay, the target named is T2, EphB4 T147F (Homo sapiens, UniProt P54760, T147F).
T2 construct: GP64 signal peptide (N, cleaved yes); made in house; host or cells: Hi5 insect cells (baculovirus, secreted)
T2 sequence (P54760 17-196 T147F): T1 sequence (P54760 17-196) with T131F
The assay can be described thus: Fluorescence polarization binding of Alexa-532-TNYL-RAW, EphB4 T147F. Conditions: FP; EphB4 mutant Thr147Phe. The procedure:
(§1) This Example illustrates fluorescence polarization (FP) assays using a fluorescently-labeled reporter peptide to measure binding of various ligands to the EphB4-LBD.
(§2) All experimental data were analyzed using Prism 4.0 software (GraphPad Software Inc., San Diego, Calif.) and Kd values were generated by fitting the experimental data using a one-site binding hyperbola nonlinear regression model or equation 8.10 (.www.invitrogen.com/downloads/FP8.pdf).
(§3) The construct was sequence verified, and baculovirus was generated with homologous recombination into Sapphire Baculovirus DNA (Orbigen, San Diego, Calif.) following the manufacturer's protocol (10). The wtEphB4 construct was used as a template for generation of site specific mutants.

For a further assay, the target named is T3, EphB4 L95R (Homo sapiens, UniProt P54760, L95R).
T3 construct: GP64 signal peptide (N, cleaved yes); made in house; host or cells: Hi5 insect cells (baculovirus, secreted)
T3 sequence (P54760 17-196 L95R): T1 sequence (P54760 17-196) with L79R
The assay can be described thus: Fluorescence polarization binding of Alexa-532-TNYL-RAW, EphB4 L95R. Conditions: EphB4 Leu95Arg mutant. The procedure:
as §1, §2, §3

The target of another assay is T4, EphB4 K149Q (Homo sapiens, UniProt P54760, K149Q).
T4 construct: GP64 signal peptide (N, cleaved yes); made in house; host or cells: Hi5 insect cells (baculovirus, secreted)
T4 sequence (P54760 17-196 K149Q): T1 sequence (P54760 17-196) with K133Q
The assay can be described thus: Fluorescence polarization binding of Alexa-532-TNYL-RAW, EphB4 K149Q. Conditions: FP; EphB4 mutant Lys149Gln. The procedure: as §1, §2, §3

The target of another assay is T5, EphB4 A186S (Homo sapiens, UniProt P54760, A186S).
T5 construct: GP64 signal peptide (N, cleaved yes); made in house; host or cells: Hi5 insect cells (baculovirus, secreted)
T5 sequence (P54760 17-196 A186S): T1 sequence (P54760 17-196) with A170S
The assay can be described thus: Fluorescence polarization binding of Alexa-532-TNYL-RAW, EphB4 A186S. The following applies: FP; EphB4 mutant Ala186Ser. The procedure:
as §1, §2, §3

Assay [15] addresses Alexa-532-TNYL-RAW peptide. The assay can be described thus: fluorescence polarization.

What is called Kd is the free concentration of one partner at which half of the binding sites on the other are occupied at equilibrium, for simple one-to-one binding. A high value points to a looser complex. Broadly, the Ki is the equilibrium dissociation constant of an inhibitor or competing ligand from its target. Higher therefore signals lower affinity.

Positions count from the first letter of the chain named. Where a SMILES comes first, the peptide text is derived from it. Where no end group is shown, it is not given here. The star is where a group is joined. X1 = CC1N=c2c(cc3c(c2S(=O)(=O)O)Oc2c(cc4c(c2S(=O)(=O)O)NC(C)C4(C)C)C=3c2ccc(C(=O)*)cc2)C1(C)C

The molecule “human EphB4 (17-196) A186S mutant (receptor)” gave a Kd in [1] of 0.016 µM.
The molecule LASPNGPIARAW [LFSP-RAW(F to A)] displayed a ΔH in [2] of −7.9 ± 0.9 koal mol−1.
Take “human EphB4 (17-196) R150V mutant (receptor)”: in assay [1], the Kd is 0.0061 µM.
Turning to “human ephrinB2 (extracellular domain; residues 25-187) (ligand)”, in assay [3], the ΔHobs stood at 3.9 kcal/mol. Moreover, the Kd came to 0.04 µM in assay [4]; 1.9 µM in [5]; 0.02 µM in assay [6]; 0.04 µM in assay [7]; 1.9 µM in [8]; 0.02 µM in assay [9]. Moreover, the TΔS in assay [4] was 13.4 kcal/mol; in assay [5], 13 kcal/mol; in [6], 14.1 kcal/mol; in assay [7], 13.4 kcal/mol; in assay [8], 13 kcal/mol; in assay [9], 14.4 kcal/mol. In addition, the ΔG in [4] is -10.2 kcal/mol; in [5], -7.8 kcal/mol; in assay [6], -10.5 kcal/mol; in assay [7], -10.2 kcal/mol; in assay [8] it was -7.8 kcal/mol; in [9], -10.6 kcal/mol. The ΔH in assay [4] was 3.3 kcal/mol; in [5], 5.2 kcal/mol; in assay [6], 3.6 kcal/mol; in [7] it was 3.3 kcal/mol; in assay [8] it was 5.2 kcal/mol; in assay [9] it was 3.7 kcal/mol.
As for “human EphB4 (17-196) R148S mutant (receptor)”, the dissociation constant (Kd) in assay [1] was 0.0045 µM.
Regarding TNYL-RAW peptide, the Kd in assay [10] stood at 35.9 µM; in assay [4] it was 0.071 µM; in assay [6] it was 0.25 µM; in assay [7], 0.071 µM; in assay [9], 0.16 µM. The TΔS is -5.8 kcal/mol in assay [10]; -4.9 kcal/mol in assay [4]; -2.7 kcal/mol in assay [6]; -4.9 kcal/mol in [7]; -3.2 kcal/mol in [9]. Also, the ΔG was -6.1 kcal/mol in assay [10]; -9.8 kcal/mol in assay [4]; -9 kcal/mol in [6]; -9.8 kcal/mol in assay [7]; -9.4 kcal/mol in [9]. In addition, the ΔH was -12 kcal/mol in [10]; -14.7 kcal/mol in assay [4]; -11.7 kcal/mol in assay [6]; -14.7 kcal/mol in assay [7]; -12.5 kcal/mol in assay [9]. For the same molecule, the Ki in assay [11] worked out at 0.1 µM; in [12] it was 0.17 µM. The values for the fold reduction of affinity against wild-type EphB4 in assay [13] and in assay [14] were 500 fold and 3 fold, respectively.
In the case of `CC[C@H](C)[C@H](NC(=O)[C@@H]1CCCN1C(=O)CNC(=O)[C@H](CC(N)=O)NC(=O)[C@@H]1CCCN1C(=O)[C@H](CO)NC(=O)[C@H](Cc1ccccc1)NC(=O)[C@H](CC(C)C)NC(=O)[C@H](Cc1ccc(O)cc1)NC(=O)[C@H](CC(N)=O)NC(=O)[C@@H](NC(=O)c1ccc(C2=c3cc4c(c(S(=O)(=O)O)c3Oc3c2cc2c(c3S(=O)(=O)O)NC(C)C2(C)C)=NC(C)C4(C)C)cc1)[C@@H](C)O)C(=O)N[C@@H](C)C(=O)N[C@@H](CCCNC(=N)N)C(=O)N[C@@H](C)C(=O)N[C@@H](Cc1c[nH]c2ccccc12)C(=O)O` (stereo partly shown) [Alexa-532-TNYL-RAW] (X1-TNYLFSPNGPIARAW-OH; N-terminus and C-terminus assumed), the “reduction in binding affinity versus wild type” value on EphB4 T147F, on EphB4 K149Q and on EphB4 A186S was 4-5 fold in each case. Further, on EphB4 L95R, the “binding of the peptide in FP assay” value is “did not exhibit significant binding”.
Regarding “human EphB4 (17-196) K149Q mutant (receptor)”, in assay [1], the dissociation constant Kd stood at 0.023 µM. In assay [15], this molecule gave an assay window of 12 fold.
In assay [1], “human EphB4 (17-196) ligand binding domain, wild type (receptor)” registered a Kd of 0.005 µM. The same molecule displayed an assay window in assay [15] of 6 fold.
The molecule “human EphB4 (17-196) T147F mutant (receptor)” displayed a dissociation constant Kd in assay [1] of 0.025 µM.
For “human EphB4 (17-196) RKR148-150SQV mutant (receptor)”, the Kd in [1] worked out at 0.021 µM.
As for `CC[C@H](C)[C@H](NC(=O)[C@@H]1CCCN1C(=O)CNC(=O)[C@H](CC(N)=O)NC(=O)[C@@H]1CCCN1C(=O)[C@H](CO)NC(=O)[C@H](Cc1ccccc1)NC(=O)[C@H](CC(C)C)NC(=O)[C@H](Cc1ccc(O)cc1)NC(=O)[C@H](CC(N)=O)NC(=O)[C@@H](N)[C@@H](C)O)C(=O)N[C@@H](C)C(=O)O` [TNYL], the ΔH in assay [2] was −9.6 ± 0.3 koal mol−1.

For the origin of these results see patent publication US20080020984A1, “Crystal Structure of a Receptor-Ligand Complex and Methods of Use” (priority 2006, published 2008).
